Results on 1 molecule are retold here after PMC4145800, “A tethered delivery mechanism explains the catalytic action of a microtubule polymerase” (eLife, 2014).

A word on the Kd: it is the concentration at which binding is half-saturated. In general, stoichiometry N refers to a count of units in the complex or per binding partner.

The test deals with T1, wild-type (polymerization-competent) yeast αβ-tubulin (yeast, UniProt P09733 1-447; P02557 1-457).
T1 construct: α-tubulin of yeast; β-tubulin of yeast, wild type; source: overexpressed in Saccharomyces cerevisiae, purified; copies: 1 + 1
The test is described as follows: AUC; sedimentation velocity; seven concentrations of TOG1 or TOG2 (44 nM-4.5 μM) titrated into 0.35 μM αβ-tubulin; 1:1 binding isotherm fitted; RB100 with 20 μM GTP, 20°C. To be noted: both partners purified.

B1: TOG2 domain from Stu2p, TOG2(318-560) (domain or fragment)
chain: MLPEETILDKLPKDFQERITSSKWKDRVEALEEFWDSVLSQTKKLKSTSQNYSNLLGIYGHIIQKDANIQAVALAAQSVELICDKLKTPGFSKDYVSLVFTPLLDRTKEKKPSVIEAIRKALLTICKYYDPLASSGRNEDMLKDILEHMKHKTPQIRMECTQLFNASMKEEKDGYSTLQRYLKDEVVPIVIQIVNDTQPAIRTIGFESFAILIKIFGMNTFVKTLEHLDNLKRKKIEETVKTL
For B1, the Kd worked out at 160 nM and the “stoichiometry N” value was 1.
